Experimental findings from publication PMC8317047, “Characterisation of a hyperthermophilic transketolase from Thermotoga maritima DSM3109 as a biocatalyst for 7-keto-octuronic acid synthesis” (Organic & Biomolecular Chemistry, 2021) are described below.

What is called Km is the concentration of substrate that gives half-maximal velocity. By Vmax is commonly meant the rate approached at saturating substrate. A word on the kcat: it is the number of substrate molecules converted per active site and unit of time at saturation. Broadly, the kcat/Km is the second-order rate constant that governs catalysis at low substrate concentration.

Substrate in data set [1]: O=C(O)C(=O)CO
The experiment in a line: purified protein. As to conditions: apparent, GA constant at 50 mM, ThDP 2.4 mM, MgCl2 9 mM, TEA 2 mM pH 7, 65 °C.

Substrate in data set [2]: O=CCO
The experiment in a line: purified protein. The format is biochemical, Thermotoga maritima. To be noted: apparent, LiHPA constant at 50 mM, ThDP 2.4 mM, MgCl2 9 mM, TEA 2 mM pH 7, 65 °C.

B1: TKtmar (Thermotoga maritima MSB8) (protein)
chain: MERFPYEKLPESELKELKELGRLCRGDILKMTYIANSGHPGGSMSSIDLYLTVFKYAKLRPVDDPARDRIVISHGHTSPGVYAAMARLGFVDLDEVLAGFRHPASVFEGHVTRGVGIIDWTTGNLGQGLSAGLGFALASRFTGKDYHVFVLMSDAEQAKGQVAEARRVAKKYGVTNLTVIIDYNDAQISGRARDVMPVNIKENYLADGWRVIEIDGHDYEQIYLALKEAVEDELNPVAIIAKTVMGKGVSFMENEVKYHGKPLNREELEKALAELGIENDVDVYIEKRKQLPVEKHKKVYKTYPIKIDTGEPITYTSPTDNRSAFGKAILDLVKKNVNNPETTPIVAVDCDLKGSVKLDLLDKEFPERLLEVGVQEHNAAAMAGALSAEGVITFFADFGVFGISETYNQHRLNAINGTNLKVVVTHCGLNVGEDGKTHHGLDYVSGPMNWYGFKVIVPGDPNQTDRVVRYAAKEYGNFVIAMGRSKLPIILDENGKPFFGEGYTFEYGKIDVVRKGDDAVIITYGSTLCEAVNAADELKKEGVNVAVLNVSCPVDLDIETLKMVDGKPVLVVEDHNVFTGLGSFLGTTLLENGIIPKKYVRVGVPEFAVSGSYTMLYKLYGLDKDGIISRLREML
notes: full length with C-terminal His6 tag, pET-29:SacB-SapI, E. coli BL21(DE3), Ni-NTA purified
B1: in data set [1], the Km is listed as 53.8 ± 4.1 mM, the Vmax turned out to be 330 µM/min, the kcat was 0.77 s⁻¹ and the kcat/Km is 14.4 M⁻¹ s⁻¹. Further, in data set [2], the Km turned out to be 3.6 ± 0.4 mM, the Vmax turned out to be 190 µM/min, the kcat was found to be 0.45 ± 0.03 s⁻¹ and the kcat/Km was determined as 126 ± 6 M⁻¹ s⁻¹.
